Measurements published in PMC3741163, “CCL18 Exhibits a Regulatory Role through Inhibition of Receptor and Glycosaminoglycan Binding” (PLoS ONE, 2013).
Where “and” joins values, the source holds several entries; their conditions need not be identical. Equal values may be shown once.

T1: CCR3 (UniProt P51677 1-355)
T1 construct: chemokine receptor CCR3 expressed on L1.2 transfectants; also called L1.2/CCR3 transfectants; source: L1.2 transfectants, on cells
T1 sequence (looked up): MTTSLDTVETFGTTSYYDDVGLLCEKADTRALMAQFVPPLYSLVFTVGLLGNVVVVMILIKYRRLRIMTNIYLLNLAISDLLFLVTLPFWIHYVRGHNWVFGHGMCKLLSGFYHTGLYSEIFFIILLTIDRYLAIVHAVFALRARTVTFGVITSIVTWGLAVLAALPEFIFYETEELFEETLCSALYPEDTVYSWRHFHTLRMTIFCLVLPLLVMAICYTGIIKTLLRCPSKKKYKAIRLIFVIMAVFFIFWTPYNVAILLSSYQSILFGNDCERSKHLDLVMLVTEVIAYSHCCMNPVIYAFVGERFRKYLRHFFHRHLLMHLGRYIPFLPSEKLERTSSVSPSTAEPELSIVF


Tests used:
CCR3 [1] = target: T1, CCR3; assay: radioligand binding; equilibrium competition on L1.2/CCR3 transfectants, tracer 0.1 nM 125I-CCL11, 0.1 x10^6 cells/well, competitor 10^-6 to 10^-12 M, room temperature 4 h, filtration; details: one partner purified
CCR3 [2] = target: T1, CCR3; assay: radioligand binding; equilibrium competition on L1.2/CCR3 transfectants, tracer 0.1 nM 125I-CCL18, 0.1 x10^6 cells/well, competitor 10^-6 to 10^-12 M, room temperature 4 h, filtration; details: one partner purified
CCR3 [3] = target: T1, CCR3; assay: cell-based or functional assay
CCR3 [4] = target: T1, CCR3; assay: cell-based or functional assay; remark: listed apart in the source

Chain of CCL11 (P51671 24-97): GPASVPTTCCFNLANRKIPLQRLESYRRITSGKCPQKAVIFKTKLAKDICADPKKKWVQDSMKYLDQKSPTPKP

| Binder | IC50 (CCR3 [1]) | IC50 (CCR3 [2]) | EC50 of CCL11-induced Ca2+ release in L1.2/CCR3 transfectants in the presence of 0 nM to 5 µM CCL18 (EC50 69.93 nM without CCL18, rising with the concentration) (CCR3 [3]) [nM] | IC50 of CCL18 for inhibition of chemotaxis of L1.2/CCR3 transfectants to 1 nM CCL11 (experiment shown in Figure 1A) (CCR3 [3]) [nM] | IC50 of CCL18 for inhibition of chemotaxis of L1.2/CCR3 transfectants to 1 nM CCL11 (mean of 7) (CCR3 [4]) [nM] | IC50 of CCL18 for inhibition of chemotaxis of L1.2/CCR3 transfectants to 10 nM CCL5 (CCR3 [4]) [nM] | IC50 of CCL18 for inhibition of chemotaxis of L1.2/CCR3 transfectants to 10 nM CCL26 (CCR3 [4]) [nM] | IC50 of CCL18 for inhibition of chemotaxis of L1.2/CCR3 transfectants to 100 nM CCL15 (CCR3 [4]) [nM] |
| --- | --- | --- | --- | --- | --- | --- | --- | --- |
| CCL11 (ligand, CCL11 chemokine, unlabelled; source: purchased from PeptroTech or produced as previously described [30]) not shown | 7.4 nM and 13.2 nM |  |  |  |  |  |  |  |
| CCL18 (ligand, human, UniProt P55774 21-89, looked up, CCL18 chemokine, unlabelled; also called PARC; MIP-4; source: purchased from PeptroTech or produced as previously described [30]) AQVGTNKELCCLVYTSWQIPQKFIVDYSETSPQCPKPGVILLTKRGRQICADPNKKWVQKYISDLKLNA |  | 6.8 nM and 8.86 nM | 10500 | 397 | 318 | 40.8 | 123 | 2.9 |
